Reference: PMC13397619

B1: NLV2 TCR alpha chain (CDR3α only) (parent)
chain: AGPMKTSYDKVI
partner: MLVPMVATV

Variants of: B1
Assay: T-Switch: Jurkat TCRβ−/− cells expressing a CDR3 saturation-mutagenesis library, stained with two peptide-HLA-A*02:01 tetramers (original and novel peptide) plus anti-CD3, FACS-sorted into four gates, gDNA sequenced
Conditions: with HLA-A*02:01 with peptide … (NLV 3-1, the novel peptide), tetramers 1 µg/mL, 30 min on ice, SP, DP and SW gates expanded about 10 days between rounds ('two to three rounds of selection' in the Methods), gate SW: higher = more of the variant in the gate that binds the novel peptide and not the original one = switched binding. Fold enrichment of the CDR3 variant in one FACS gate of a two-tetramer stain, unresolved parent, parent is a CDR3 fragment, scale: fold enrichment, numbering: sequential-on-construct, sequence starts at 1
[…] (CDR3 as printed); K10W derived by comparing it with the table's wild-type CDR3 AGPMKTSYDKVI was tested, and the enrichment was 0. […] (CDR3 as printed); P3D derived by comparing it with the table's wild-type CDR3 AGPMKTSYDKVI was tested, and the enrichment was 0. […] (CDR3 as printed); S7P derived by comparing it with the table's wild-type CDR3 AGPMKTSYDKVI gave an enrichment of 0. […] (CDR3 as printed); D9E derived by comparing it with the table's wild-type CDR3 AGPMKTSYDKVI showed an enrichment of 0. In the case of […] (CDR3 as printed); Y8N derived by comparing it with the table's wild-type CDR3 AGPMKTSYDKVI, the enrichment is reported as 0. With […] (CDR3 as printed); K5F derived by comparing it with the table's wild-type CDR3 AGPMKTSYDKVI the enrichment was 0. Work on […] (CDR3 as printed); A1G derived by comparing it with the table's wild-type CDR3 AGPMKTSYDKVI yielded an enrichment of 0. […] (CDR3 as printed); P3I derived by comparing it with the table's wild-type CDR3 AGPMKTSYDKVI showed an enrichment of 0. […] (CDR3 as printed); P3M derived by comparing it with the table's wild-type CDR3 AGPMKTSYDKVI showed an enrichment of 0. In the case of […] (CDR3 as printed); M4I derived by comparing it with the table's wild-type CDR3 AGPMKTSYDKVI, the enrichment is reported as 0. With […] (CDR3 as printed); K10N derived by comparing it with the table's wild-type CDR3 AGPMKTSYDKVI the enrichment was 0. For […] (CDR3 as printed); V11E derived by comparing it with the table's wild-type CDR3 AGPMKTSYDKVI, the enrichment was 0. […] (CDR3 as printed); I12L derived by comparing it with the table's wild-type CDR3 AGPMKTSYDKVI gave an enrichment of 0. With […] (CDR3 as printed); D9F derived by comparing it with the table's wild-type CDR3 AGPMKTSYDKVI the enrichment was 0. In the case of […] (CDR3 as printed); T6W derived by comparing it with the table's wild-type CDR3 AGPMKTSYDKVI, the enrichment is reported as 0. In the case of […] (CDR3 as printed); P3V derived by comparing it with the table's wild-type CDR3 AGPMKTSYDKVI, the enrichment is reported as 0.657. Work on […] (CDR3 as printed); P3G derived by comparing it with the table's wild-type CDR3 AGPMKTSYDKVI yielded an enrichment of 0. […] (CDR3 as printed); D9W derived by comparing it with the table's wild-type CDR3 AGPMKTSYDKVI gave an enrichment of 0. Variant […] (CDR3 as printed); G2P derived by comparing it with the table's wild-type CDR3 AGPMKTSYDKVI has an enrichment of 0. Work on […] (CDR3 as printed); K10T derived by comparing it with the table's wild-type CDR3 AGPMKTSYDKVI yielded an enrichment of 0. […] (CDR3 as printed); I12R derived by comparing it with the table's wild-type CDR3 AGPMKTSYDKVI gave an enrichment of 0. […] (CDR3 as printed); A1F derived by comparing it with the table's wild-type CDR3 AGPMKTSYDKVI showed an enrichment of 0. In the case of […] (CDR3 as printed); D9S derived by comparing it with the table's wild-type CDR3 AGPMKTSYDKVI, the enrichment is reported as 0. Work on […] (CDR3 as printed); M4W derived by comparing it with the table's wild-type CDR3 AGPMKTSYDKVI yielded an enrichment of 0. In the case of […] (CDR3 as printed); S7Y derived by comparing it with the table's wild-type CDR3 AGPMKTSYDKVI, the enrichment is reported as 0. Variant […] (CDR3 as printed); M4F derived by comparing it with the table's wild-type CDR3 AGPMKTSYDKVI has an enrichment of 0. […] (CDR3 as printed); D9K derived by comparing it with the table's wild-type CDR3 AGPMKTSYDKVI was tested, and the enrichment was 0. With […] (CDR3 as printed); V11P derived by comparing it with the table's wild-type CDR3 AGPMKTSYDKVI the enrichment was 0. With […] (CDR3 as printed); I12A derived by comparing it with the table's wild-type CDR3 AGPMKTSYDKVI the enrichment was 0. […] (CDR3 as printed); S7R derived by comparing it with the table's wild-type CDR3 AGPMKTSYDKVI gave an enrichment of 0. With […] (CDR3 as printed); T6I derived by comparing it with the table's wild-type CDR3 AGPMKTSYDKVI the enrichment was 0. In the case of […] (CDR3 as printed); Y8H derived by comparing it with the table's wild-type CDR3 AGPMKTSYDKVI, the enrichment is reported as 0. […] (CDR3 as printed); K5S derived by comparing it with the table's wild-type CDR3 AGPMKTSYDKVI gave an enrichment of 0. […] (CDR3 as printed); K10C derived by comparing it with the table's wild-type CDR3 AGPMKTSYDKVI gave an enrichment of 0. Variant […] (CDR3 as printed); M4R derived by comparing it with the table's wild-type CDR3 AGPMKTSYDKVI has an enrichment of 0. For […] (CDR3 as printed); K10F derived by comparing it with the table's wild-type CDR3 AGPMKTSYDKVI, the enrichment was 0. Work on […] (CDR3 as printed); A1E derived by comparing it with the table's wild-type CDR3 AGPMKTSYDKVI yielded an enrichment of 0. In the case of […] (CDR3 as printed); T6E derived by comparing it with the table's wild-type CDR3 AGPMKTSYDKVI, the enrichment is reported as 0. […] (CDR3 as printed); M4H derived by comparing it with the table's wild-type CDR3 AGPMKTSYDKVI showed an enrichment of 0. […] (CDR3 as printed); K5Q derived by comparing it with the table's wild-type CDR3 AGPMKTSYDKVI gave an enrichment of 0. […] (CDR3 as printed); K5Y derived by comparing it with the table's wild-type CDR3 AGPMKTSYDKVI gave an enrichment of 0. Work on […] (CDR3 as printed); G2H derived by comparing it with the table's wild-type CDR3 AGPMKTSYDKVI yielded an enrichment of 0. […] (CDR3 as printed); S7D derived by comparing it with the table's wild-type CDR3 AGPMKTSYDKVI gave an enrichment of 0. […] (CDR3 as printed); K10R derived by comparing it with the table's wild-type CDR3 AGPMKTSYDKVI showed an enrichment of 0. With […] (CDR3 as printed); A1V derived by comparing it with the table's wild-type CDR3 AGPMKTSYDKVI the enrichment was 0. In the case of […] (CDR3 as printed); K5W derived by comparing it with the table's wild-type CDR3 AGPMKTSYDKVI, the enrichment is reported as 0. […] (CDR3 as printed); M4D derived by comparing it with the table's wild-type CDR3 AGPMKTSYDKVI showed an enrichment of 0. For […] (CDR3 as printed); S7K derived by comparing it with the table's wild-type CDR3 AGPMKTSYDKVI, the enrichment was 0. With […] (CDR3 as printed); K5P derived by comparing it with the table's wild-type CDR3 AGPMKTSYDKVI the enrichment was 0. Work on […] (CDR3 as printed); V11C derived by comparing it with the table's wild-type CDR3 AGPMKTSYDKVI yielded an enrichment of 0. […] (CDR3 as printed); S7C derived by comparing it with the table's wild-type CDR3 AGPMKTSYDKVI gave an enrichment of 0. […] (CDR3 as printed); V11H derived by comparing it with the table's wild-type CDR3 AGPMKTSYDKVI showed an enrichment of 0. […] (CDR3 as printed); G2F derived by comparing it with the table's wild-type CDR3 AGPMKTSYDKVI gave an enrichment of 0. […] (CDR3 as printed); Y8S derived by comparing it with the table's wild-type CDR3 AGPMKTSYDKVI was tested, and the enrichment was 0. Work on […] (CDR3 as printed); P3Y derived by comparing it with the table's wild-type CDR3 AGPMKTSYDKVI yielded an enrichment of 0. Work on […] (CDR3 as printed); S7Q derived by comparing it with the table's wild-type CDR3 AGPMKTSYDKVI yielded an enrichment of 0. […] (CDR3 as printed); G2D derived by comparing it with the table's wild-type CDR3 AGPMKTSYDKVI gave an enrichment of 0. For […] (CDR3 as printed); I12N derived by comparing it with the table's wild-type CDR3 AGPMKTSYDKVI, the enrichment was 0. For […] (CDR3 as printed); T6A derived by comparing it with the table's wild-type CDR3 AGPMKTSYDKVI, the enrichment was 0. With […] (CDR3 as printed); S7T derived by comparing it with the table's wild-type CDR3 AGPMKTSYDKVI the enrichment was 0. Variant […] (CDR3 as printed); P3F derived by comparing it with the table's wild-type CDR3 AGPMKTSYDKVI has an enrichment of 0. In the case of […] (CDR3 as printed); A1L derived by comparing it with the table's wild-type CDR3 AGPMKTSYDKVI, the enrichment is reported as 0. For […] (CDR3 as printed); S7A derived by comparing it with the table's wild-type CDR3 AGPMKTSYDKVI, the enrichment was 0. […] (CDR3 as printed); M4A derived by comparing it with the table's wild-type CDR3 AGPMKTSYDKVI was tested, and the enrichment was 0. In the case of […] (CDR3 as printed); T6G derived by comparing it with the table's wild-type CDR3 AGPMKTSYDKVI, the enrichment is reported as 0. […] (CDR3 as printed); V11M derived by comparing it with the table's wild-type CDR3 AGPMKTSYDKVI was tested, and the enrichment was 0. […] (CDR3 as printed); K10A derived by comparing it with the table's wild-type CDR3 AGPMKTSYDKVI gave an enrichment of 0. Work on […] (CDR3 as printed); V11Y derived by comparing it with the table's wild-type CDR3 AGPMKTSYDKVI yielded an enrichment of 0. With […] (CDR3 as printed); V11L derived by comparing it with the table's wild-type CDR3 AGPMKTSYDKVI the enrichment was 0.
